In publication PMC4714512 one finds stoichiometry N data, which are given here for three substances.

The target in this experiment is Human histone H3.5 (human) (UniProt Q6NXT2). Nature of the experiment: native gel or EMSA; nucleosomes reconstituted with 146 base-pair human alpha-satellite DNA by salt dialysis from 2 M KCl, heated at 55 °C for 2 h, purified by preparative non-denaturing PAGE; analysed by non-denaturing 6 % PAGE and 18 % SDS-PAGE (histone composition). A general note: Mobility shift assays separate free from complexed probe on a gel.

Turning to “Human histone H2A (from UniProt P04908 1-130) (natural protein)”, the stoichiometry N was found to be 1.

Consider “Human histone H2B (from UniProt P06899 1-126) (natural protein)”, for which the stoichiometry N worked out at 1. As for “Human histone H4 (from UniProt P62805 1-103) (natural protein)”, the stoichiometry N came out at 1.

As a reminder, the stoichiometry N is the number of molecules, sites or subunits per partner or assembly.
